Target: F-actin (polymerized rabbit skeletal muscle G-actin) (rabbit) (UniProt P68135)
Assay: co-sedimentation

percent decrease in F-actin binding compared with wild type: 60%
Substance: talin ABS2 6× mutant (K922E/Q923E/Q930E/K1500E/R1510E/K1522E) (from UniProt P26039 1-2541) (domain or fragment)
